Experimental findings from patent publication US11827699 (dated 2023) are described below.

Holding throughout (test): SPR
For experiment [1], the target named is T1, human FcγRIIb (human, UniProt P31994).
T1 chain: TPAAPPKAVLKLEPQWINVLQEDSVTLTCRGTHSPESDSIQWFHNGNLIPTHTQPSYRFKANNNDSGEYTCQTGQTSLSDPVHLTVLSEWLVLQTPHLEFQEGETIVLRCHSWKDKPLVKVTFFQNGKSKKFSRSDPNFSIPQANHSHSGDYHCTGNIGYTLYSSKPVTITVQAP

The target of experiment [2] is human FcγRIIIa V158 (human, UniProt P08637).
The target in experiment [3] is T2, human FcγRIIa H131 (human, UniProt P12318).
T2 chain: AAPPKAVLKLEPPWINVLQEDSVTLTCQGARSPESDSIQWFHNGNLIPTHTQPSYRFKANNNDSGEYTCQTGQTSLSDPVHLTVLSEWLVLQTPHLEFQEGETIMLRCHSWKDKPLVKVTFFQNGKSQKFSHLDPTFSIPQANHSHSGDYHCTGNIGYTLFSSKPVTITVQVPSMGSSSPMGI

Experiment [4] addresses T3, human FcγRIa (human, UniProt P12314).
T3 chain: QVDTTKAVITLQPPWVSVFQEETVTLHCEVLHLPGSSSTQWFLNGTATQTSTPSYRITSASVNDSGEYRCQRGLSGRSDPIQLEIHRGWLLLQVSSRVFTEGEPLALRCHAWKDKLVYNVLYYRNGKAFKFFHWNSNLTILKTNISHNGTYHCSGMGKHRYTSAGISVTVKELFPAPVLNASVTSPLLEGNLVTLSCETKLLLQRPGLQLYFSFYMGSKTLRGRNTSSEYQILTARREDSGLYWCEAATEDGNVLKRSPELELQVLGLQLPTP

Chain of human FcγRIIIa V158 (P08637 17-208 F176V): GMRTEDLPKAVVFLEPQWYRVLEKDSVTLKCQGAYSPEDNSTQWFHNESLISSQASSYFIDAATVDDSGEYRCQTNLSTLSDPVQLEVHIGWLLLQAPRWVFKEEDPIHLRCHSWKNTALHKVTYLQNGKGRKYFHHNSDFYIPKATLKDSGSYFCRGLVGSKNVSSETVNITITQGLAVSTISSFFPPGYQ

B1: IL6R-BP493 (antibody)
chain 1: QVQLQESGPGLVKPSETLSLTCAVSGHSISHDHAWSWVRQPPGEGLEWIGFISYSGITNYNPSLQGRVTISRDNSKNTLYLQMNSLRAEDTAVYYCARSLARTTAMDYWGEGTLVTVSSASTKGPSVFPLAPSSKSTSGGTAALGCLVKDYFPEPVTVSWNSGALTSGVHTFPAVLQSSGLYSLSSVVTVPSSSLGTQTYICNVNHKPSNTKVDKKVEPKSCDKTHTCPPCPAPELLGGDSVFLFPPKPKDTLMISRTPEVTCVVIDVAEEDGEVKFNWYVDGVEVHNAKTKPREEQDNSTYRVVSVLTVLHQDWLNGKEYKCKVSNKALPAPIEKTISKAKGQPREPQVYTLPPSRDELTKNQVSLTCLVKGFYPSDIAVEWESNGQPENNYKTTPPVLDSDGSFFLYSKLTVDKSRWQQGNVFSCSVMHEALHNHYTQESLSLSP
chain 2: not shown
Regarding B1, the Kd (commonly the free concentration of one partner at which half of the binding sites on the other are occupied at equilibrium, for simple one-to-one binding) in experiment [1] turned out to be 0.021 µM; in experiment [2], 35 µM; in experiment [3], 19 µM; in experiment [4], 0.00082 µM.

B2: IL6R-BP510 (antibody)
chain 1: QVQLQESGPGLVKPSETLSLTCAVSGHSISHDHAWSWVRQPPGEGLEWIGFISYSGITNYNPSLQGRVTISRDNSKNTLYLQMNSLRAEDTAVYYCARSLARTTAMDYWGEGTLVTVSSASTKGPSVFPLAPSSKSTSGGTAALGCLVKDYFPEPVTVSWNSGALTSGVHTFPAVLQSSGLYSLSSVVTVPSSSLGTQTYICNVNHKPSNTKVDKKVEPKSCDKTHTCPPCPAPELLGDDSVFLFPPKPKDTLMISRTPEVTCVVIDVAEEDGPVKFNWYVDGVEVHNAKTKPREEQYNSTYRVVSVLTVLHQDWLNGKEYKCKVSNKALPRPIEKTISKAKGQPREPQVYTLPPSRDELTKNQVSLTCLVKGFYPSDIAVEWESNGQPENNYKTTPPVLDSDGSFFLYSKLTVDKSRWQQGNVFSCSVMHEALHNHYTQESLSLSP
chain 2: not shown
With B2, the Kd in experiment [1] is 0.0038 µM; in experiment [2] it was 25 µM; in experiment [3] it was 4 µM; in experiment [4], 0.006 µM.

B3: IL6R-BP426 (antibody)
chain 1: QVQLQESGPGLVKPSETLSLTCAVSGHSISHDHAWSWVRQPPGEGLEWIGFISYSGITNYNPSLQGRVTISRDNSKNTLYLQMNSLRAEDTAVYYCARSLARTTAMDYWGEGTLVTVSSASTKGPSVFPLAPSSKSTSGGTAALGCLVKDYFPEPVTVSWNSGALTSGVHTFPAVLQSSGLYSLSSVVTVPSSSLGTQTYICNVNHKPSNTKVDKKVEPKSCDKTHTCPPCPAPDLLGDDSVFLFPPKPKDTLMISRTPEVTCVVVDVAEDDGEVKFNWYVDGVEVHNAKTKPREEQYNSTYRVVSVLTVLHQDWLNGKEYKCKVSNKALPRPIEKTISKAKGQPREPQVYTLPPSRDELTKNQVSLTCLVKGFYPSDIAVEWESNGQPENNYKTTPPVLDSDGSFFLYSKLTVDKSRWQQGNVFSCSVMHEALHNHYTQESLSLSP
chain 2: not shown
Regarding B3, the Kd in experiment [3] amounted to 19 µM; in experiment [4] it was 0.001 µM.

B4: IL6R-BP430 (antibody)
chain 1: QVQLQESGPGLVKPSETLSLTCAVSGHSISHDHAWSWVRQPPGEGLEWIGFISYSGITNYNPSLQGRVTISRDNSKNTLYLQMNSLRAEDTAVYYCARSLARTTAMDYWGEGTLVTVSSASTKGPSVFPLAPSSKSTSGGTAALGCLVKDYFPEPVTVSWNSGALTSGVHTFPAVLQSSGLYSLSSVVTVPSSSLGTQTYICNVNHKPSNTKVDKKVEPKSCDKTHTCPPCPAPDLLGDDSVFLFPPKPKDTLMISRTPEVTCVVVDLGEEDGEVKFNWYVDGVEVHNAKTKPREEQYNSTYRVVSVLTVLHQDWLNGKEYKCKVSNKALPRPIEKTISKAKGQPREPQVYTLPPSRDELTKNQVSLTCLVKGFYPSDIAVEWESNGQPENNYKTTPPVLDSDGSFFLYSKLTVDKSRWQQGNVFSCSVMHEALHNHYTQESLSLSP
chain 2: not shown
As for B4, the Kd in experiment [3] is 38 µM.

B5: IL6R-BP266 (antibody)
chain 1: QVQLQESGPGLVKPSETLSLTCAVSGHSISHDHAWSWVRQPPGEGLEWIGFISYSGITNYNPSLQGRVTISRDNSKNTLYLQMNSLRAEDTAVYYCARSLARTTAMDYWGEGTLVTVSSASTKGPSVFPLAPSSKSTSGGTAALGCLVKDYFPEPVTVSWNSGALTSGVHTFPAVLQSSGLYSLSSVVTVPSSSLGTQTYICNVNHKPSNTKVDKKVEPKSCDKTHTCPPCPAPDLLGDDSVFLFPPKPKDTLMISRTPEVTCVVVDVSEEDGEVKFNWYVDGVEVHNAKTKPREEQYNSTYRVVSVLTVLHQDWLNGKEYKCKVSNKALPRPIEKTISKAKGQPREPQVYTLPPSRDELTKNQVSLTCLVKGFYPSDIAVEWESNGQPENNYKTTPPVLDSDGSFFLYSKLTVDKSRWQQGNVFSCSVMHEALHNHYTQESLSLSP
chain 2: not shown
Turning to B5, the Kd in experiment [2] was 40 µM; in experiment [3] it was 13 µM.

B6: IL6R-BP501 (antibody)
chain 1: QVQLQESGPGLVKPSETLSLTCAVSGHSISHDHAWSWVRQPPGEGLEWIGFISYSGITNYNPSLQGRVTISRDNSKNTLYLQMNSLRAEDTAVYYCARSLARTTAMDYWGEGTLVTVSSASTKGPSVFPLAPSSKSTSGGTAALGCLVKDYFPEPVTVSWNSGALTSGVHTFPAVLQSSGLYSLSSVVTVPSSSLGTQTYICNVNHKPSNTKVDKKVEPKSCDKTHTCPPCPAPELLGDDSVFLFPPKPKDTLMISRTPEVTCVVIDVAEEDGEVKFNWYVDGVEVHNAKTKPREEQYNSTYRVVSVLTVLHQDWLNGKEYKCKVSNKALPAPIEKTISKAKGQPREPQVYTLPPSRDELTKNQVSLTCLVKGFYPSDIAVEWESNGQPENNYKTTPPVLDSDGSFFLYSKLTVDKSRWQQGNVFSCSVMHEALHNHYTQESLSLSP
chain 2: not shown
B6: the Kd in experiment [1] was 0.025 µM; in experiment [2], 19 µM; in experiment [3], 14 µM; in experiment [4], 0.0021 µM.

B7: IL6R-BP436 (antibody)
chain 1: QVQLQESGPGLVKPSETLSLTCAVSGHSISHDHAWSWVRQPPGEGLEWIGFISYSGITNYNPSLQGRVTISRDNSKNTLYLQMNSLRAEDTAVYYCARSLARTTAMDYWGEGTLVTVSSASTKGPSVFPLAPSSKSTSGGTAALGCLVKDYFPEPVTVSWNSGALTSGVHTFPAVLQSSGLYSLSSVVTVPSSSLGTQTYICNVNHKPSNTKVDKKVEPKSCDKTHTCPPCPAPDLLGDDSVFLFPPKPKDTLMISRTPEVTCVVVDVAEEDGEVKFNWYVDGVEVHNAKTKPREEQDNSTYRVVSVLTVLHQDWLNGKEYKCKVSNKALPRPTEKTISKAKGQPREPQVYTLPPSRDELTKNQVSLTCLVKGFYPSDIAVEWESNGQPENNYKTTPPVLDSDGSFFLYSKLTVDKSRWQQGNVFSCSVMHEALHNHYTQESLSLSP
chain 2: not shown
B7 came in with a Kd in experiment [2] of 23 µM.

B8: IL6R-BP435 (antibody)
chain 1: QVQLQESGPGLVKPSETLSLTCAVSGHSISHDHAWSWVRQPPGEGLEWIGFISYSGITNYNPSLQGRVTISRDNSKNTLYLQMNSLRAEDTAVYYCARSLARTTAMDYWGEGTLVTVSSASTKGPSVFPLAPSSKSTSGGTAALGCLVKDYFPEPVTVSWNSGALTSGVHTFPAVLQSSGLYSLSSVVTVPSSSLGTQTYICNVNHKPSNTKVDKKVEPKSCDKTHTCPPCPAPDLLGDDSVFLFPPKPKDTLMISRTPEVTCVVVDVSDEDGEVKFNWYVDGVEVHNAKTKPREEQDNSTYRVVSVLTVLHQDWLNGKEYKCKVSNAALPRPTEKTISKAKGQPREPQVYTLPPSRDELTKNQVSLTCLVKGFYPSDIAVEWESNGQPENNYKTTPPVLDSDGSFFLYSKLTVDKSRWQQGNVFSCSVMHEALHNHYTQESLSLSP
chain 2: not shown
In experiment [4], B8 displayed a Kd of 0.001 µM.

B9: IL6R-BP495 (antibody)
chain 1: QVQLQESGPGLVKPSETLSLTCAVSGHSISHDHAWSWVRQPPGEGLEWIGFISYSGITNYNPSLQGRVTISRDNSKNTLYLQMNSLRAEDTAVYYCARSLARTTAMDYWGEGTLVTVSSASTKGPSVFPLAPSSKSTSGGTAALGCLVKDYFPEPVTVSWNSGALTSGVHTFPAVLQSSGLYSLSSVVTVPSSSLGTQTYICNVNHKPSNTKVDKKVEPKSCDKTHTCPPCPAPELLGDDSVFLFPPKPKDTLMISRTPEVTCVVVDVGEEDGEVKFNWYVDGVEVHNAKTKPREEQDNSTYRVVSVLTVLHQDWLNGKEYKCKVSNKALPRPIEKTISKAKGQPREPQVYTLPPSRDELTKNQVSLTCLVKGFYPSDIAVEWESNGQPENNYKTTPPVLDSDGSFFLYSKLTVDKSRWQQGNVFSCSVMHEALHNHYTQESLSLSP
chain 2: not shown
As for B9, the Kd in experiment [1] worked out at 0.0097 µM; in experiment [2], 33 µM; in experiment [3], 12 µM; in experiment [4] it was 0.0083 µM.

B10: IL6R-BP423 (antibody)
chain 1: QVQLQESGPGLVKPSETLSLTCAVSGHSISHDHAWSWVRQPPGEGLEWIGFISYSGITNYNPSLQGRVTISRDNSKNTLYLQMNSLRAEDTAVYYCARSLARTTAMDYWGEGTLVTVSSASTKGPSVFPLAPSSKSTSGGTAALGCLVKDYFPEPVTVSWNSGALTSGVHTFPAVLQSSGLYSLSSVVTVPSSSLGTQTYICNVNHKPSNTKVDKKVEPKSCDKTHTCPPCPAPDLLGDDSVFLFPPKPKDTLMISRTPEVTCVVVDVAEEDGEVKFNWYVDGVEVHNAKTKPREEQYNSTYRVVSVLTVLHQDWLNGKEYKCKVSNKALPRPIEKTISKAKGQPREPQVYTLPPSRDELTKNQVSLTCLVKGFYPSDIAVEWESNGQPENNYKTTPPVLDSDGSFFLYSKLTVDKSRWQQGNVFSCSVMHEALHNHYTQESLSLSP
chain 2: not shown
Turning to B10, binding in experiment [3] was put at a Kd of 2 µM.
